Data as given in patent publication US20210115143A1 (R PHARM OVERSEAS, published 2021).
Values joined by “and” are separate entries in the source; they are usually repeats but may differ in a detail not shown here. Equal values may be shown once.

B1: B60-55 anti-hPD-L1 scFv fused to IgG1-Fc (affinity matured) (Fc fusion)
scFv: QVQLVQSGAEVKKPASSVKVSCTASGGSFSTYAISWVRQAPGQGLEWMGGIIPIFGTTKYAQRFQGRVTITADESTTTAYMELSSLISDDTALYYCTTSRGFNYGWFDYWGQGTLVTVSSGGGGSGGGGSGGGGSEIVMTQSPATLSLSPGERATLSCRASQSVGIHLAWYQQKLGQAPRLLIYGASSRATGIPDRFSGSGSGTDFTLTISRLEPEDFAVYYCQQYGSLPRTFGQGTKVEIK
notes: not shown: human immunoglobulin gamma1 (IgG1) constant region, UniProt P01857, residues 104-330 (IgG1-Fc)
B2: BII61-62 anti-hPD-L1 scFv fused to IgG1-Fc (affinity matured) (Fc fusion)
scFv: QVQLQQSGPGLVKPSQTLSLTCAISGDSVSSNSASWNWIRQSPSRGLEWLGRTYYRSKWYDDYAVSVKGRISINPDTSKNQFSLQLNSVTPEDTAVYYCARSQGRYFVNYGMDVWGQGTTVTVSSGGGGSGGGGSGGGGSDIRLTQSPSSLSASVGDRITITCRASQSISSYLNWYQQKPGKAPKLLVYGASSLQSGVPSRFSGSGSGTDFTLTISSLQPEDVATYYCQQSYFTPRGITFGPGTKVDIK
notes: as for B1
B3: BII61-62 mAb (anti-hPD-L1, human IgG1, kappa) (antibody, V domains shown)
VH: QVQLQQSGPGLVKPSQTLSLTCAISGDSVSSNSASWNWIRQSPSRGLEWLGRTYYRSKWYDDYAVSVKGRISINPDTSKNQFSLQLNSVTPEDTAVYYCARSQGRYFVNYGMDVWGQGTTVTVSS
VL: DIRLTQSPSSLSASVGDRITITCRASQSISSYLNWYQQKPGKAPKLLVYGASSLQSGVPSRFSGSGSGTDFTLTISSLQPEDVATYYCQQSYFTPRGITFGPGTKVDIK
B4: B60-55 mAb (anti-hPD-L1, human IgG1, kappa) (antibody, V domains shown)
VH: QVQLVQSGAEVKKPASSVKVSCTASGGSFSTYAISWVRQAPGQGLEWMGGIIPIFGTTKYAQRFQGRVTITADESTTTAYMELSSLISDDTALYYCTTSRGFNYGWFDYWGQGTLVTVSS
VL: EIVMTQSPATLSLSPGERATLSCRASQSVGIHLAWYQQKLGQAPRLLIYGASSRATGIPDRFSGSGSGTDFTLTISRLEPEDFAVYYCQQYGSLPRTFGQGTKVEIK

What was measured:
[1] = biological target: hPD-L1 as used in the binding and blocking tests of Example 4 (human, UniProt Q9NZQ7 19-238, limits assumed); test: competition with PD-1 for PD-L1, scFv-Fc (FIG. 3)
[2] = biological target: human PD-L1 on primary human cells in the dendritic cell / CD4+ T cell mixed lymphocyte reaction (human, UniProt Q9NZQ7 19-290); test: cell-based or functional assay
Sequence of human PD-L1 on primary human cells in the dendritic cell / CD4+ T cell mixed lymphocyte reaction (Q9NZQ7 19-290): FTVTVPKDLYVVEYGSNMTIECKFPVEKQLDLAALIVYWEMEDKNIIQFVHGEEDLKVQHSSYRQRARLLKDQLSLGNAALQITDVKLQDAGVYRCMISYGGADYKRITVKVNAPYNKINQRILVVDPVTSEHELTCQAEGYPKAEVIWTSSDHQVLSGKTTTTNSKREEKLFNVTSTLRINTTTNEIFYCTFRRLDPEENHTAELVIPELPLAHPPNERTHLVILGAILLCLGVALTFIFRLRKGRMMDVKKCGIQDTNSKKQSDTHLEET

Sequence of hPD-L1 as used in the binding and blocking tests of Example 4 (Q9NZQ7 19-238 limits assumed): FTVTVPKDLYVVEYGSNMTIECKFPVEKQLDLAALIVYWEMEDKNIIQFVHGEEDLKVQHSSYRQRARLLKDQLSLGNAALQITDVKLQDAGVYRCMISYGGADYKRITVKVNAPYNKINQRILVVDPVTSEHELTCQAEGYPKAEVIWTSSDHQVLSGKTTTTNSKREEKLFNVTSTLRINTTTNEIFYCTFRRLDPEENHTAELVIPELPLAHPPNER

Row | Binder | IC50 [1] [µg/mL] | EC50 of IFN-γ secretion by CD4+ T cells in a dendritic cell-T cell mixed lymphocyte reaction [2]
1 | B1 | 1.14 | –
2 | B2 | 0.837 | –
3 | B3 | – | 0.078 µg/ml and 0.5 nM
4 | B4 | – | 0.189 µg/ml and 1.2 nM
